Data on four substances can be found in patent publication US20030228258A1.

Assay [1] addresses T cell receptors of the mouse p60217-225-specific CD8+ T cell line (mouse). The assay can be described thus: cell-based or functional assay.
The target of assay [2] is T cell receptors of the mouse LLO91-99-specific CD8+ T cell line (mouse). Description: cell-based or functional assay.
Assay [3] shares this target. The assay can be described thus: flow cytometry, tetramer staining at 37 C, column headed 2 h.
For assay [4] the target is unchanged. Description: flow cytometry, tetramer staining at 37 C, 1 h incubation.
The target of assay [5] is T cell receptors of the mouse p60217-225-specific CD8+ T cell line (mouse). Description: flow cytometry, tetramer staining of CD8+ T cell line.
In assay [6] the target is T cell receptors of the mouse LLO91-99-specific CD8+ T cell line (mouse). The assay is described as above.
For assay [7] the target is unchanged. Description: flow cytometry, tetramer staining at 37 C, 8 h incubation.
For assay [8], the target named is T cell receptors of the human Flu-specific (Flu58-66) CD8+ T cell line (human). Description: flow cytometry, tetramer staining at 37 C, column headed 2 h.
Assay [9] shares this target. Description: flow cytometry, tetramer staining at 37 C, 1 h incubation.
Assay [10] has the same target. Description: flow cytometry, tetramer staining of CD8+ T cell line.
Assay [11] shares this target. Description: flow cytometry, tetramer staining at 37 C, 24 h incubation.
The target is the same in assay [12]. The assay can be described thus: flow cytometry, tetramer staining at 37 C, 8 h incubation.

In [1], “225Ac-labeled LLO91 tetramer (225Ac-DOTA-biotin, LLO91/H-2K^d monomers, streptavidin) (from UniProt P61769 21-119; P22629 37-163; P01902 22-305) (peptide-MHC)” yielded an IFN-γ ELISPOT, spots, non-treated vs treated with 10 nCi/ml for 72 hr (specific IFN-γ spots (treated)) of 105 and a cell killing (ED50) of 100 to 200 nCi/ml. For the same substance, in assay [2], the IFN-γ ELISPOT, spots, non-treated vs treated with 10 nCi/ml for 72 hr (specific IFN-γ spots (treated)) worked out at 83 and the cell killing (ED50) fell in the range of 4 to 8 nCi/ml.

For the substance “LLO91-99/H-2K^d tetramer (fluorescent, non-radiolabeled) (from UniProt P61769 21-119; P22629 37-163; P01902 22-305) (peptide-MHC)”, the results for the % tetramer binding of CD8+ T cells in assay [3], in assay [4] and in [7] were 75%, 76% and 63%, respectively. Moreover, the % of CD8+ T cells stained with the tetramer in [5] was found to be 1.3%. This substance showed a % of CD8+ T cells that bound the tetramer in assay [6] of 76%.

In the case of “LMP1/HLA-A2 tetramer (PE- or FITC-streptavidin, non-radiolabeled) (from UniProt P61769 21-119; P22629 37-163) (peptide-MHC)”, the % tetramer binding of CD8+ T cells came out at 1.2% in [8], 0.9% in assay [9], 1% in assay [11] and 1.5% in assay [12]. The substance also registered a % of CD8+ T cells stained with the tetramer in assay [10] of 1%.

As for “p60217-225/H-2K^d tetramer (from UniProt P61769 21-119; P22629 37-163; P01902 22-305) (peptide-MHC)”, the % of CD8+ T cells stained positive for the tetramer in assay [5] came out at 70%.
